{
  "source": "paper PMC7145699",
  "about": "“Structural insights into target DNA recognition by R2R3-MYB transcription factors”",
  "binders": {"B1": {"name": "GL2 promoter WER target DNA (dsDNA)", "DNA 1": "AAATTCTCCAACCGCATTTTC", "DNA 2": "GAAAATGCGGTTGGAGAATTT"}, "B2": {"name": "C14:G9* (dsDNA)", "DNA 1": "AAATTCTCCAACCCCATTTTC", "DNA 2": "GAAAATGGGGTTGGAGAATTT"}, "B3": {"name": "6mA10 DNA (6mAAC) (dsDNA)", "DNA 1": "AAATTCTCCAACCGCATTTTC", "DNA 2": "GAAAATGCGGTTGGAGAATTT", "modifications": "6mA at A10 of strand 1"}, "B4": {"name": "6mA11 DNA (A6mAC) (dsDNA)", "DNA 1": "AAATTCTCCAACCGCATTTTC", "DNA 2": "GAAAATGCGGTTGGAGAATTT", "modifications": "6mA at A11 of strand 1"}, "B5": {"name": "6mA10,6mA11 DNA (6mA6mAC) (dsDNA)", "DNA 1": "AAATTCTCCAACCGCATTTTC", "DNA 2": "GAAAATGCGGTTGGAGAATTT", "modifications": "6mA at A10 and A11 of strand 1"}, "B6": {"name": "A14:T9* (dsDNA)", "DNA 1": "AAATTCTCCAACCACATTTTC", "DNA 2": "GAAAATGTGGTTGGAGAATTT"}, "B7": {"name": "T14:A9* (dsDNA)", "DNA 1": "AAATTCTCCAACCTCATTTTC", "DNA 2": "GAAAATGAGGTTGGAGAATTT"}, "B8": {"name": "C10:G13* (dsDNA)", "DNA 1": "AAATTCTCCCACCGCATTTTC", "DNA 2": "GAAAATGCGGTGGGAGAATTT"}, "B9": {"name": "crystal DNA (dsDNA)", "DNA 1": "AAATTCTCCAACCGCATTTTC", "DNA 2": "CGAAAATGCGGTTGGAGAATT"}, "B10": {"name": "A12:T11* (dsDNA)", "DNA 1": "AAATTCTCCAAACGCATTTTC", "DNA 2": "GAAAATGCGTTTGGAGAATTT"}, "B11": {"name": "5mC12 DNA (AA5mC) (dsDNA)", "DNA 1": "AAATTCTCCAACCGCATTTTC", "DNA 2": "GAAAATGCGGTTGGAGAATTT", "modifications": "5mC at C12 of strand 1"}},
  "key": {"WER 12-130 (WER-R2R3) [1]": {"biological_target": "T1, WER 12-130 (WER-R2R3) (Arabidopsis, UniProt Q9SEI0 12-130)", "T1 sequence": "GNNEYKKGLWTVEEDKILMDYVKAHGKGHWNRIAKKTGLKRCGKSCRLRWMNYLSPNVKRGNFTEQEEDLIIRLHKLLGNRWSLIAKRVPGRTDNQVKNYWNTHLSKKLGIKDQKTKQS", "experiment": "ITC; ITC: 150 mM NaCl, 20 mM HEPES pH 7.5, 25 C, 400 uM protein into 20 uM DNA; EMSA: 150 mM NaCl, 20 mM Tris-HCl pH 8.0, on ice 1 h, 0.1 uM DNA, 6% native PAGE 0.5x TBE", "details": "protein: recombinant; tags: 6xHis-SUMO removed by Ulp1; blunt"}, "WER 12-130 (WER-R2R3) [2]": {"biological_target": "T1, WER 12-130 (WER-R2R3)", "experiment": "ITC; ITC: 150 mM NaCl, 20 mM HEPES pH 7.5, 25 C, 400 uM protein into 20 uM DNA; EMSA: 150 mM NaCl, 20 mM Tris-HCl pH 8.0, on ice 1 h, 0.1 uM DNA, 6% native PAGE 0.5x TBE", "details": "protein: recombinant; tags: 6xHis-SUMO removed by Ulp1; blunt", "remark": "listed apart in the source"}, "WER 12-130 (WER-R2R3) [3]": {"biological_target": "T1, WER 12-130 (WER-R2R3)", "experiment": "ITC; ITC: 150 mM NaCl, 20 mM HEPES pH 7.5, 25 C, 400 uM protein into 20 uM DNA; EMSA: 150 mM NaCl, 20 mM Tris-HCl pH 8.0, on ice 1 h, 0.1 uM DNA, 6% native PAGE 0.5x TBE", "details": "protein: recombinant; tags: 6xHis-SUMO removed by Ulp1; blunt", "remark": "listed apart in the source"}, "WER 12-130 (WER-R2R3) [4]": {"biological_target": "T1, WER 12-130 (WER-R2R3)", "experiment": "crystal structure (2.15 A); ITC: 150 mM NaCl, 20 mM HEPES pH 7.5, 25 C, 400 uM protein into 20 uM DNA; EMSA: 150 mM NaCl, 20 mM Tris-HCl pH 8.0, on ice 1 h, 0.1 uM DNA, 6% native PAGE 0.5x TBE", "details": "protein: recombinant; tags: 6xHis-SUMO removed by Ulp1; 5' overhang 1 nt at both ends"}},
  "data": [
    {"binder": "B1", "values": [
      {"measurement": "Kd", "setting": "WER 12-130 (WER-R2R3) [1]", "value": "~0.051", "unit": "µM"}
    ]},
    {"binder": "B2", "values": [
      {"measurement": "binding signal", "setting": "WER 12-130 (WER-R2R3) [2]", "value": "40 fold decrease in affinity vs N1"}
    ]},
    {"binder": "B3", "values": [
      {"measurement": "binding signal", "setting": "WER 12-130 (WER-R2R3) [3]", "value": "12 fold decrease in affinity vs N1"}
    ]},
    {"binder": "B4", "values": [
      {"measurement": "binding signal", "setting": "WER 12-130 (WER-R2R3) [3]", "value": "5 fold decrease in affinity vs N1"}
    ]},
    {"binder": "B5", "values": [
      {"measurement": "binding signal", "setting": "WER 12-130 (WER-R2R3) [3]", "value": "> 20 fold decrease in affinity vs N1"}
    ]},
    {"binder": "B6", "values": [
      {"measurement": "binding result", "setting": "WER 12-130 (WER-R2R3) [1]", "value": "binds"}
    ]},
    {"binder": "B7", "values": [
      {"measurement": "binding result", "setting": "WER 12-130 (WER-R2R3) [1]", "value": "binds"}
    ]},
    {"binder": "B8", "values": [
      {"measurement": "Kd", "setting": "WER 12-130 (WER-R2R3) [1]", "value": 2, "unit": "µM"}
    ]},
    {"binder": "B9", "values": [
      {"measurement": "binding result", "setting": "WER 12-130 (WER-R2R3) [4]", "value": "binds"}
    ]},
    {"binder": "B10", "values": [
      {"measurement": "Kd", "setting": "WER 12-130 (WER-R2R3) [1]", "value": 2.59, "unit": "µM"}
    ]},
    {"binder": "B11", "values": [
      {"measurement": "Kd", "setting": "WER 12-130 (WER-R2R3) [1]", "value": 2.34, "unit": "µM"}
    ]}
  ]
}
